Patent US20100015637A1 (AbbVie / Abbott, published 2010)

Legend:
[1] = target: human PlGF-1 comprising amino acids 1-137 produced in human embryonic kidney cells (human) (UniProt P49763); test: Format 3 Quantikine ELISA, capture MAb264, detection Pb264; sFlt-1 3067 pmol/L (ratio 100)
[2] = target: human PlGF-1 comprising amino acids 1-137 produced in human embryonic kidney cells (human) (UniProt P49763); test: Format 3 Quantikine ELISA, capture MAb264, detection Pb264; sFlt-1 9200 pmol/L (ratio 300)
[3] = target: human PlGF-1 comprising amino acids 1-137 produced in human embryonic kidney cells (human) (UniProt P49763); test: Format 2 …, capture MAb264, detection Pb264; sFlt-1 1227 pmol/L (ratio 40)
[4] = target: human PlGF-1 comprising amino acids 1-137 produced in human embryonic kidney cells (human) (UniProt P49763); test: Format 2 …, capture MAb264, detection Pb264; sFlt-1 77 pmol/L (ratio 2.5)
[5] = target: recombinant human PlGF-1 (comprising amino acids 1-131) expressed in E. coli (R&D Systems) (human) (UniProt P49763); test: … sandwich, capture MAb255, detection MAb826; antigen 750 pg/mL
[6] = target: T1, CHO human PlGF-1 fragment (comprising amino acids 17-131; ATCC PTA-8540) (human, UniProt P49763 35-221); test: … sandwich, capture MAb255, detection pAb264; antigen 60 pg/mL
T1 sequence: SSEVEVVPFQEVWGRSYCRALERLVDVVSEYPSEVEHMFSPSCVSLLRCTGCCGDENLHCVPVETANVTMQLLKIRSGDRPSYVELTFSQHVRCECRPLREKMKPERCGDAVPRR

[7] = target: T2, human PlGF-1 fragment (comprising amino acids 17-131) produced in human embryonic kidney cells (human, UniProt P49763 35-221); test: as above
T2 sequence: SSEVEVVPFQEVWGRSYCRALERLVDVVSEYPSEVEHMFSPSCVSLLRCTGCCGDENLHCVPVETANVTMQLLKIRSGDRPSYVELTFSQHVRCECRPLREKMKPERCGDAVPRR

[8] = target: T3, human PlGF-1 comprising amino acids 1-137 produced in human embryonic kidney cells (human, UniProt P49763 19-221); test: as above
T3 construct: Mature human PlGF-1 with 6xHis tag; also called HEK (1-137); full length HEK human PlGF-1 (1-137)
T3 sequence: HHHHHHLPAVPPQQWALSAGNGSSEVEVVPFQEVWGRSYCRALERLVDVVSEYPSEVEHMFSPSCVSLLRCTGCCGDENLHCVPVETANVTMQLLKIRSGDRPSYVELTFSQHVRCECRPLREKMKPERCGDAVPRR

[9] = target: T1, CHO human PlGF-1 fragment (comprising …); test: … sandwich, capture MAb255, detection pAb264; antigen 15 pg/mL
[10] = target: T2, human PlGF-1 fragment (comprising amino …); test: as above
[11] = target: T3, human PlGF-1 comprising amino acids …; test: as above
[12] = target: T4, CHO human PlGF-1 comprising amino acids 1-137 (human PlGF-1-His (1-131), CHO 6305) (human, UniProt P49763 19-221, N-glycans at N21 (completely glycosylated) and N89 (partially glycosylated)); test: as above
T4 construct: Mature human PlGF-1 with 6xHis tag (137 amino acids); also called CHO (1-137)
T4 sequence: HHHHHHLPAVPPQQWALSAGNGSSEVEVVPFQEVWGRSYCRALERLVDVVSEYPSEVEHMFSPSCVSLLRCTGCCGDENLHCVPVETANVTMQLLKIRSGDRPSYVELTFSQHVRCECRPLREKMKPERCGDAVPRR

[13] = target: recombinant human PlGF-1 (comprising amino acids 1-131) expressed in E. coli (R&D Systems) (human) (UniProt P49763); test: … sandwich, capture MAb255, detection pAb264; antigen 1500 pg/mL
[14] = target: recombinant human PlGF-1 (comprising amino acids 1-131) expressed in E. coli (R&D Systems) (human) (UniProt P49763); test: … sandwich, capture MAb255, detection pAb264; antigen 15 pg/mL
[15] = target: recombinant human PlGF-1 (comprising amino acids 1-131) expressed in E. coli (R&D Systems) (human) (UniProt P49763); test: … sandwich, capture MAb255, detection MAb826; antigen 250 pg/mL
[16] = target: recombinant human PlGF-1 (comprising amino acids 1-131) expressed in E. coli (R&D Systems) (human) (UniProt P49763); test: … sandwich, capture MAb826, detection pAb264; antigen 750 pg/mL
[17] = target: T1, CHO human PlGF-1 fragment (comprising …); test: as above
[18] = target: T2, human PlGF-1 fragment (comprising amino …); test: as above
[19] = target: T3, human PlGF-1 comprising amino acids …; test: as above
[20] = target: T4, CHO human PlGF-1 comprising amino acids …; test: as above

For “native sFlt-1, isolated from human placental tissue (from UniProt P17948 27-687) (receptor)”, the % Inhibition [1] was 80.9%, the PlGF-1 Measured [1] was 166 pg/mL and the % Inhibition [2] was 82.2%. For the same molecule, the PlGF-1 Measured [2] was 154 pg/mL, the % Inhibition [3] was 92.9% and the PlGF-1 Measured [3] was 55.5 pg/mL. The % Inhibition [4] was 37.2% and the PlGF-1 Measured [4] was 494 pg/mL.

B1: monoclonal antibody 1-255-713 (produced by murine hybridoma cell line 1-255-713, ATCC PTA-8536) (antibody, mouse IgG2a, V domains shown)
VH: QVHLQQSGAELMKPGASVKISCKATGYTFSSYWIEWVKQRPGHGLEWIGEILPGSVSNNFNEKFKDKATLTADPSSNTAYIQVSSLTSEDSAVYYCARSTGFYYGGNYFDHWGQGTTLAVSS
VL: DVVMTQTPLSLPVSPGDQASISCRSSQSLVHSNGHTYLHWYLQKPGQSPKLLIYKVSNRFSGVPDRVSGSGSGTDFTLKISRVEAEDLGVYFCSQSTHVPPTFGGGTKLEIKR
notes: also called MAb255
In the case of B1, the RLU [5] is reported as 780000 RLU, the RLU [6] is reported as 81200 RLU and the RLU [7] is reported as 107000 RLU. For the same molecule, the RLU [8] was 165000 RLU, the RLU [9] was 28700 RLU and the RLU [10] was 32900 RLU. For the same molecule, the RLU [11] was 46700 RLU, the RLU [12] was 26400 RLU and the RLU [13] was 2.19e+06 RLU. The RLU [14] was 47200 RLU and the RLU [15] was 298000 RLU.

B2: monoclonal antibody 2-826-335 (produced by murine hybridoma cell line 2-826-335, ATCC PTA-8539) (antibody, mouse IgG1, V domains shown)
VH: QVQLKQSGPGLVQPSQSLSITCTVSGFSLTTYGIHWVRQSPGKGLEWLGVMWSGGDTDYDAAFISRLSISKDNSKSQVFFKMNSLQANDTGIYYCARYRFYGMDYWGQGTSVTVSS
VL: AIQMTQSSSSFSVSLGDRVTITCKASEDIYNRFAWYQQKPGNAPRLLISGAASLEAGVPSRFSGSGSGQDYTLSITSLQTEDVATYYCQQYWSTPWTFGGGTKLEIKR
notes: also called MAb826
B2 was tested, and the RLU [16] was 606000 RLU, the RLU [17] was 239000 RLU and the RLU [18] was 336000 RLU. It also gave an RLU [19] of 423000 RLU and an RLU [20] of 180000 RLU.
